Measurements: the Human Domainome abundance scans (Beltran et al. 2025)

B1: Unconventional myosin-Ie, residues 1051 to 1108; numbered along this chain, Q12965 (parent)
chain: PQVPQCKALYAYDAQDTDELSFNANDIIDIIKEDPSGWWTGRLRGKQGLFPNNYVTKI

Variants of: B1
Experiment: abundance fitness (aPCA) (normalised: wild type 0, dead -1); higher = more abundant; growth selection in yeast, the domain comes from the species named
Conditions: Homo sapiens

Abundance fitness, by site and new letter:
K57: P -0.218, A -0.337, V -0.257, L -0.442, N -0.143, E -0.266, W -0.554, Q -0.315, Y 0.151, D -0.295, S -0.323, M -0.34, G -0.391, T -0.365
L49: P -0.656, Q -0.151, G -0.16, W -0.157, V -0.015, H -0.317, I -0.219, D -0.319, E -0.242, K 0.036, A -0.236, R 0.09, T -0.288, N -0.428, C -0.025
N52: Q -0.197, W -0.053, E 0.019, S 0.024, T -0.087, I -0.123, F 0.002, K -0.284, L -0.027, V -0.068, D -0.195, C -0.515, H -0.087, G 0.02, Y -0.209, R -0.114, A 0.03, M -0.231
F50: G -0.826, M -0.31, T -1.08, R -0.968, I 0.069, A -0.841, E -0.911, D -0.839, Y -0.831, K -1.07, C -0.94, V -0.208, W -0.944, P -0.896, L -0.19
Y54: G -0.713, P -0.814, F -0.243, N -0.657, Q -0.43, V -0.145, H 0.038, E -0.97, M -0.16, K -0.158, A -0.055, D -0.949, I -0.296, L -0.04, C -0.087
G48: K -0.718, R -0.646, C -0.477, M -0.579, T -0.91, N -0.626, D -0.885, L -0.399, A -0.171, F -0.598, V -0.756, W -0.609, Q -0.826
N53: T -0.275, W -0.151, S -0.262, H -0.012, M 0.075, A -0.147, Y -0.22, D 0.016, F 0.071, L -0.188, V -0.176, P -0.516, G -0.027, C -0.021, E -0.078, Q -0.07, K -0.066
V55: D -0.777, P -0.747, W -0.645, E -0.945, G -0.94, S -0.732, C -0.197, Q -1.02, N -0.632, I -0.27, M -0.534, T -0.111, A -0.387
K46: Y -0.351
Q47: W -0.111, F -0.167, N -0.507, M -0.169, K 0.007, Y 0.248, L -0.194, A -0.222, I -0.216, H -0.149, R -0.099, E -0.066, C -0.236, V 0.041, P -0.32, D -0.417, G -0.451, T 0.005, S -0.16
P51: H -0.264, Q -0.438, K -0.18, S -0.287, V -0.94, A -0.341, R -0.026, E -0.674, M -0.484, L -0.198, W -0.143, C -0.316, G -0.771, Y -0.425, F -0.302, D -0.114
T56: E 0.033, P -0.534, C -0.074, F -0.023, R -0.097, H 0.044, N -0.078, K -0.165, G -0.255, I -0.261, D -0.034, V -0.074, A -0.075, S -0.042, Y -0.197, W -0.122, M 0.023
I58: L -0.091, V -0.055, F -0.116, G -0.456, D -0.089, H -0.333, S -0.15, Y -0.299, R -0.32, M 0.015, T -0.484
